# Measurements taken from US20260234209A1.
# B1: C2-58-2X_mb7 (designed binder)
# chain: MHHHHHHAENLYFQSGSDEELLRELLKLLLKLLEQMGDEEARRVVEELREELEKKGDPRALVLAFALVILVFLLRILRELGDEELVRRVEELWEELLKEGDPQAMMEVFKLVQELQERRGSGSDRRKEMDKVYRTAYKRITSTPDKEKRKEVVKEATEQLRRIAKDEEEKKKAAYMISFLKTLGS
# B2: C6-79C_mb7 (designed binder)
# chain: MGSSDEEEARELEERAREAAKRAIEAAKRTGDPRVRELAEELVKLAIWAAVEVWLDPSSSDVNEALKLIVEAIEAAVRALEAAERTGDPEVRELARELVRLAVEAAEEVQRNPSSSDVNEALKLIVIAIEAAVRALEAAERTGDPEVRELARELVRLAVEAAEEVQRNPSSEEVNEALRKIIKLILFAVMVLELAEEIGDPTWREMARRAVREAVELAEEVQRDPSGWLGHGSDRRKEMDKVYRTAYKRITSTPDKEKRKEVVKEATEQLRRIAKDEEEKKKAAYMISFLKTLGSLEHHHHHH
# B3: C4-71C_mb7 (designed binder)
# chain: MGPEEILERARESLERAREASERGDEEEFRKAAEKALELAKRLVEQAKKEGDPWMVMWAALVALWVALLALRNGDKEVFKKAAESALEVAKRLVEVASKEGDPEMVLLAAWVALFVAWLAWLFGDKEVFKKAAESALEVAKRLVEVASKEGDPELVEEAAKVAEEVEKLAEKQGDEEVREKAWETWMEVWLLWLEVRLRKGGGGSDRRKEMDKVYRTAYKRITSTPDKEKRKEVVKEATEQLRRIAKDEEEKKKAAYMISFLKTLGSLEHHHHHH
# B4: C8-71C_mb7 (designed binder)
# chain: MEKKIGPEEILERAKESLERAREASERGDEEEFRKAAEKALELAKRLVEQAKKEGDPELVLEAARVALWVAELAAKNGDKEVFKKAAESALEVAKRLVEVASKEGDPDLVAWAALVALWVAFLAFLNGDKEVFKKAAESALEVAKALMEVAMKVGAPWLVELAIAVARAVWLLAELFGDEEVRRRAEAFEIILRIAAIAVKAWLGGGGSDRRKEMDKVYRTAYKRITSTPDKEKRKEVVKEATEQLRRIAKDEEEKKKAAYMISFLKTLGSLEHHHHHH
# B5: C4-71N_mb7 (designed binder)
# chain: MGDRRKEMDKVYRTAYKRITSTPDKEKRKEVVKEATEQLRRIAKDEEEKKKAAYMISFLKTLGSPEEILERARESLERAREASERGDEEEFRKAAEKALELAKRLVEQAKKEGDPWMVMWAALVALWVALLALRNGDKEVFKKAAESALEVAKRLVEVASKEGDPEMVLLAAWVALFVAWLAWLFGDKEVFKKAAESALEVAKRLVEVASKEGDPELVEEAAKVAEEVEKLAEKQGDEEVREKAWETWMEVWLLWLEVRLRKGGGGSLEHHHHHH
# Biological target: human FGFR1c (human), P11362
# Assay: cell-based or functional assay
# Sequence of human FGFR1c (human), P11362 (P11362 22-822): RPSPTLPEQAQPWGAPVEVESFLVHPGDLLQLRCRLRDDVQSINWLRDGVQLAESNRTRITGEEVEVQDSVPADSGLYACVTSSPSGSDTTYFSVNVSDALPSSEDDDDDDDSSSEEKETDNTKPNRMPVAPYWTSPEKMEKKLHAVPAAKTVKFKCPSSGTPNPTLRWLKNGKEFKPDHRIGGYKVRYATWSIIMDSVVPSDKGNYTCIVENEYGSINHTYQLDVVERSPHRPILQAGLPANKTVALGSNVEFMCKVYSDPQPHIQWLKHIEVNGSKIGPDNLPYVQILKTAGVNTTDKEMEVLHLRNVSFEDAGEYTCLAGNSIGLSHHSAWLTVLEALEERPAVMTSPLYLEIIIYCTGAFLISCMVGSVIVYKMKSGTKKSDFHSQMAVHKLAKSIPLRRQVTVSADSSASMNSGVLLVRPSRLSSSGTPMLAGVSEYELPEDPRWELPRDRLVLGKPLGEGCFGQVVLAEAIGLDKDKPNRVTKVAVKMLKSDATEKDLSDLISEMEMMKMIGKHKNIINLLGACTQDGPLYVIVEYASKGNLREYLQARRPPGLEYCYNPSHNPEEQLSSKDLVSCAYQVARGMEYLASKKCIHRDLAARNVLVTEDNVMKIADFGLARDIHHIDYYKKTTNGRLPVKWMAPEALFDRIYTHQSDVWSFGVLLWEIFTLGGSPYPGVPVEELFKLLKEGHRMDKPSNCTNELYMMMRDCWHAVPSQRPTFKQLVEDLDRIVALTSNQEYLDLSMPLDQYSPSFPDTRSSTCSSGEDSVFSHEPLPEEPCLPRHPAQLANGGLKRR
Binder,EC50 of ERK1/2 phosphorylation (phosphoflow) in CHO-R1c cells [nM],EC50 of intracellular calcium release in CHO-R1c cells [nM],"EC50 of ERK phosphorylation (phosphoflow), C4-71N mb7 extension series [nM]"
B1,0.63,26,
B2,1.56,0.38,
B3,1.33,0.72,
B4,2.07,3.09,
B5,0.89,,1.3
